Source: patent US20100233154A1, “TARGETED BINDING AGENTS DIRECTED TO HEPARANASE AND USES THEREOF 463” (MedImmune Limited, priority 2008, published 2010)

Assays:
MCF7-Hpa1#19 cells = assay: Accumulation of precursor heparanase in conditioned medium and cell lysates (Western blot); assay type: cell-based, human; settings: 25 μg per ml, 24 hrs
Method: MCF7-Hpa1#19 cells were cultured until confluent and then grown overnight (˜12 hrs) at 37° C. in serum free medium. Following overnight incubation, culture medium was replaced with serum free medium containing 25 μg per ml anti-heparanase monoclonal antibody 10E9.1 or a control IgG2 antibody (Sigma Cat. No. 1504-1MG) and incubated for a further 24 hrs at 37° C. Cell cultures were then treated for 2 hrs with PMA 0.1-10 μM, to stimulate heparanase expression (Sasaki N et al, J Immunol. 172: 3830, 2004). Conditioned medium from the cultures was harvested and concentrated 10-fold and protein lysates in RIPA buffer were prepared from the cells. Proteins from conditioned medium or cell lysates were separated on […] gels as described previously and heparanase was detected using an anti-heparanase polyclonal antibody (Biochain Cat. No. Z5010104).

[1] = biological target: T1, cell surface heparanase of parental MCF7 or MCF7-Hpa1#19 cells (Homo sapiens, UniProt Q9Y251); assay: Cell surface heparanase activity assay; assay type: cell-based; settings: 5 or 25 μg per ml
T1 construct: an expression construct comprising a full-length human heparanase cDNA under the control of a CMV promoter; expressed in transfected cells; host or cells: MCF7-Hpa1#19 (pCR3.1 vector, CMV promoter); parental MCF7 cells run alongside carry only low endogenous heparanase
T1 sequence (Q9Y251 158-543): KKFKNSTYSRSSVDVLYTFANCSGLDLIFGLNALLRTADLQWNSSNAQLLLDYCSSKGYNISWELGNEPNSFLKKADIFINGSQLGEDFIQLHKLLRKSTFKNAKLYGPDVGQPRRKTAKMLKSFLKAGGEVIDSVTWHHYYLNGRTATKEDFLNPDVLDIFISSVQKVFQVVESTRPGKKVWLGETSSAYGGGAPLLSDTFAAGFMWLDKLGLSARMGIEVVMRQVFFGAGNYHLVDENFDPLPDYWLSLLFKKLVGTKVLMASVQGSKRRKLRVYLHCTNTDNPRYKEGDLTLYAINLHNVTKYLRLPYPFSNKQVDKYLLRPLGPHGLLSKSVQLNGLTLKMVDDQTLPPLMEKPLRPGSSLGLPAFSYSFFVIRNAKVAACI
T1 sequence (Q9Y251 36-109): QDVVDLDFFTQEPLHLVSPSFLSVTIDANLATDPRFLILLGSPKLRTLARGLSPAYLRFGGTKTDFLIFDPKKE
Method: Cell surface heparanase activity was measured by a modification of the methodology used in the recombinant enzyme screen (Example 4). Parental MCF7 or MCF7-Hpa1#19 cells were cultured in non-tissue culture (non-adherent) 96-well plates, seeded at 10^6 cells per well. After overnight incubation at 37° C. anti-heparanase 10E9.1 or control IgG2 (Sigma Cat. 1504-1MG) antibodies were added to the cells, to a final concentration of 0.04-25 μg per ml, and incubated for 1 hr at room temperature. Thereafter Biotin Heparan Sulfate Europium Criptate (CisBio Cat. No. 61BHSKAA) was added to the cells (final concentration 20 ng per ml) and incubated at 37° C. for 1 hr. Degradation of the heparan sulfate substrate was determined following the addition of Streptavidin-XL665 (final concentration 250 ng per ml; CisBio Cat. No. 611SAXLA) to the cells and fluorescence measured using excitation at 330 nm and emission at 670 nm. In the absence of anti-heparanase antibody or in the presence of control IgG2, the minimum fluorescence at 670 nm is the result of degradation of heparan sulfate (see FIG. 10).

Recombinant Hpa1 = biological target: T2, Recombinant Hpa1 (Homo sapiens, UniProt Q9Y251); assay: Medium resolution Biacore affinity; assay type: binding; settings: purified antibody captured on CM4 chip; Hpa1 1 nM and 10 nM; 25° C.
T2 construct: Heparanase 8 and 50 kDa sub-units were cloned into pacGP67 as Sma 1-EcoR1 fragments; made in house; host or cells: Hi5 insect cells, baculovirus (pFastBac Dual)
T2 sequence (Q9Y251 158-543 limits assumed): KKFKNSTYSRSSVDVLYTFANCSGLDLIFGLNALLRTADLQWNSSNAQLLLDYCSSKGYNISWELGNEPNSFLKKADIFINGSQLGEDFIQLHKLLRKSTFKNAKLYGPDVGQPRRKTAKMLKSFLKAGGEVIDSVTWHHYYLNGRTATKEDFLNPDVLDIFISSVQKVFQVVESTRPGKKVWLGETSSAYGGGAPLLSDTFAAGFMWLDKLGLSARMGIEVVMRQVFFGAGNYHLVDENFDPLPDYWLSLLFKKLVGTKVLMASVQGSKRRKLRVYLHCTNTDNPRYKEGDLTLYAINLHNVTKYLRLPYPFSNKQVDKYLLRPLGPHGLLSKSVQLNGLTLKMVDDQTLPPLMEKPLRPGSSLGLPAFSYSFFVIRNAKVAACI
T2 sequence (Q9Y251 36-109 limits assumed): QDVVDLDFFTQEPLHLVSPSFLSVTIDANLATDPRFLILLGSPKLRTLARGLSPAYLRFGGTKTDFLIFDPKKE
Method: For medium resolution Biacore™ tests, cloned and purified antibodies were used. Each of three purified antibodies (10E9.1, 15A1.2, and 15A11.1) were captured onto a high-density goat anti-human antibody surface over a CM4 Biacore™ chip. Recombinant Hpa1 was diluted to the desired concentration (1 nM and 10 nM) in 10 mM HEPES, 150 mM NaCl, 0.005% tween-20, 0.1 mg per ml BSA pH7.4 (25° C.) immediately prior to injection. Data were fit globally to a 1:1 interaction model with a term for mass transport included. The resulting KD values are summarised below in Table 4.

HCT116 xenograft = assay: Subcutaneous xenograft tumour growth, HCT116; assay type: in vivo, SCID mice; settings: once weekly i.p.; 10E9.1 at 15 mg per kg
Method: MCF7-Hpa1#19 and HCT116 tumour cells were harvested from sub-confluent cultures. A total of 5×10^6 (MCF7-Hpa1#19) or 10^7 (HCT116) tumour cells were inoculated subcutaneously into the flank of male SCID mice. HCT116 tumour cells were implanted in PBS; […] cells were implanted in PBS containing 50% matrigel.
When tumours had attained ˜200 mm^3, tumour bearing mice were randomised into treatment groups and dosed with the following; PBS; an isotype matched control IgG2 antibody, 15 mg per kg; anti-heparanase antibody 10E9.1, 7.5 or 15 mg per kg. All treatments were administered once weekly i.p. Tumour growth was measured twice per week using calipers and tumour volumes calculated according to an ellipsoid volume is formula (3.142/6×length×width×width) from measures of the largest tumour diameter and two opposing widths (FIG. 11).

cynomolgus heparanase = assay: Cross species capture ELISA, cynomolgus heparanase; assay type: binding; settings: min 0.06, max 1.5 OD units
Method: Initially, cross species binding to human, murine and cynomolgus heparanase was determined in an ELISA assay in which heparanase was captured onto plates using a rabbit anti-heparanase antibody (Raybiotech, Cat. IP-14-155). Exhaustive supernatants were added to the plates at a final dilution of 1:5 and bound antibody detected with a rabbit anti-human IgG Fc.

B1: 10E9.1: fully human anti-heparanase monoclonal antibody, G2κ; VH SEQ ID NO 2, VL SEQ ID NO 4; ATCC PTA-9489 (antibody, listed as Homo Sapiens, V domains shown)
VH: QVQLVQSGAEVKKPGASVKVSCKVSGYSLTELSIHWVRQAPGKGLEWMGGFDPEDGEIIFAQKFQGRVTLTEDISLDTAYMEVSSLRSEDTAVYYCATEGHDSGDYVGYYYYGLDVWGQGTTVTVSS
VL: DIQMTQSPSSLSASVGDRVTITCRASQDIRNFLAWYQQKPGKLPKLLIYAASTLQSGVPSRFSGSGSGTDFTLTISSLQPEDVASYYCQSHNSVPFTFGPGTKVDIR
notes: fully human anti-heparanase monoclonal antibody, G2κ; ATCC PTA-9489
Accumulation of precursor (65 kDa) heparanase in the culture medium (MCF7-Hpa1#19 cells; compared to control IgG2): accumulation of precursor (65 kDa) heparanase in the culture medium | PMA-stimulated increase in intracellular heparanase (MCF7-Hpa1#19 cells; then PMA 0.1-10 μM 2 hrs): appeared to be attenuated | Inhibition of cell surface heparanase activity [1]: complete inhibition of cell surface heparanase activity | ka (Recombinant Hpa1): 2.06e+06 M⁻¹ s⁻¹ | kd (Recombinant Hpa1): 0.000112 s⁻¹ | Tumour growth inhibition (HCT116 xenograft): not inhibited | Binding to heparanase Cyno (cynomolgus heparanase): 1.4 OD units
